Target: T1, IL-2Rβ ectodomain (SPR, Figure 4A) (human, UniProt P14784 27-240)
T1 chain: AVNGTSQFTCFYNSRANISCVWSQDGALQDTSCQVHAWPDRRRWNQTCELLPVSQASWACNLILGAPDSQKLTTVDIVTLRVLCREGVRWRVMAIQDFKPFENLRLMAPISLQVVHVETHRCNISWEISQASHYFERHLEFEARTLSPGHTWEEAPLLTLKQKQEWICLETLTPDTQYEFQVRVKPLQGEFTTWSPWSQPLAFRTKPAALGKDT
Test: SPR

B1: Super-2 (ligand)
chain: APTSSSTKKTQLQLEHLLLDLQMILNGINNYKNPKLTRMLTFKFYMPKKATELKHLQCLEEELKPLEEVLNLAQSKNFHFDPRDVVSNINVFVLELKGSETTFMCEYADETATIVEFLNRWITFCQSIISTLT
Q: Which Kd does the source give for B1 here?
A: The Kd was 3.3 nM.

Source: publication PMC6755802 (2019)
